From paper PMC10362054, “p53 restoration in small cell lung cancer identifies a latent cyclophilin-dependent necrosis mechanism” (Nature Communications, 2023)

Biological target: T1, Cyclophilin A (endogenous) (mouse (endogenous in mouse SCLC …, UniProt P17742 1-164))
T1 construct: cyclophilin A, encoded by Ppia, endogenous in cell lines derived from mouse SCLC tumors; also called CypA; PPIA; source: endogenous, mouse SCLC Type D (4711-18) and Type V (4716-10) cells, fixed cells
Assay: proximity ligation; Duolink PLA on fixed Type D (4711-18) and Type V (4716-10) mouse SCLC cells treated with 4-OHT for 48 h; endogenous proteins; antibodies to p53 and to cyclophilin A, D or E
Conditions: partners not purified

T1 sequence (P17742 whole entry): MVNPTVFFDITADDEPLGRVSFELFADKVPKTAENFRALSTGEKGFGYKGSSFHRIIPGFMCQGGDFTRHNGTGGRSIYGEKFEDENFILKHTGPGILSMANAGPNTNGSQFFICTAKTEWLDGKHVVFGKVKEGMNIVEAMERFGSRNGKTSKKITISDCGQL

B1: p53 (endogenous, restored Trp53 allele) (natural protein, UniProt P02340 1-390, looked up)
chain: MTAMEESQSDISLELPLSQETFSGLWKLLPPEDILPSPHCMDDLLLPQDVEEFFEGPSEALRVSGAPAAQDPVTETPGPVAPAPATPWPLSSFVPSQKTYQGNYGFHLGFLQSGTAKSVMCTYSPPLNKLFCQLAKTCPVQLWVSATPPAGSRVRAMAIYKKSQHMTEVVRRCPHHERCSDGDGLAPPQHLIRVEGNLYPEYLEDRQTFRHSVVVPYEPPEAGSEYTTIHYKYMCNSSCMGGMNRRPILTIITLEDSSGNLLGRDSFEVRVCACPGRDRRTEEENFRKKEVLCPELPPGSAKRALPTCTSASPPQKKKPLDGEYFTLKIRGRKRFEMFRELNEALELKDAHATEESGDSRAHSSYLKTKKGQSTSRHKKTMVKKVGPDSD
notes: p53 expressed from the restored endogenous Trp53 allele (p53 R state) in cell lines derived from mouse SCLC tumors; source: endogenous, mouse SCLC Type D (4711-18) and Type V (4716-10) cells after 4-OHT, fixed cells
B1 was tested. Which “fold less PLA interaction in Type V cells than in Type D cells” value did it give?
The value was roughly 10 fold.
